{
  "source": "paper PMC4191409",
  "about": "“AP endonucleases process 5-methylcytosine excision intermediates during active DNA demethylation in Arabidopsis”",
  "key": {"MBP-ARP": {"target": "T1, MBP-ARP (Arabidopsis thaliana (Col-0), UniProt P45951 1-536)", "T1 sequence": "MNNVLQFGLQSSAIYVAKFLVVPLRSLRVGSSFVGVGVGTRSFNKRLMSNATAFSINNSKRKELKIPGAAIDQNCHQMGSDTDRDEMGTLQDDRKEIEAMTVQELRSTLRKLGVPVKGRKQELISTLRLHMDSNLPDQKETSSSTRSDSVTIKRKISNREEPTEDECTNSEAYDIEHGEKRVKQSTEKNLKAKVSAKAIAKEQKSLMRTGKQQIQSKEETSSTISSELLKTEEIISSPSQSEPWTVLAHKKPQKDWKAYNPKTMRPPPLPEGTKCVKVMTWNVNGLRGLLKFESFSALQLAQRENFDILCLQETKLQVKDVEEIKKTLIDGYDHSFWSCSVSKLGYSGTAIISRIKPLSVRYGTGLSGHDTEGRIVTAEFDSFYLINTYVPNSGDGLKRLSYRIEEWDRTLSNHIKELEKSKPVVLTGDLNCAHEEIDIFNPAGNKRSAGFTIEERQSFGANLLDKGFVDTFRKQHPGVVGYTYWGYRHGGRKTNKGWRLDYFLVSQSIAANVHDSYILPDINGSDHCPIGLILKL", "assay": "EMSA; no Mg2+ listed; 100 and 300 nM protein, 50 nM DNA; EMSA: 10 mM Tris-HCl pH 8.0, 150 mM NaCl, 0.05% Triton X-100, 0.1 mg/mL BSA, 10% glycerol, 10 mM DTT; on ice 10 min; 8% native gel", "conditions": "protein: recombinant; tags: N-terminal MBP (HRV 3C site); HisTrap purified; label: 32P (5' end of strand 1); blunt"}, "MBP-APE1L": {"target": "T2, MBP-APE1L (Arabidopsis thaliana (Col-0), UniProt Q5XF07 1-364)", "T2 sequence": "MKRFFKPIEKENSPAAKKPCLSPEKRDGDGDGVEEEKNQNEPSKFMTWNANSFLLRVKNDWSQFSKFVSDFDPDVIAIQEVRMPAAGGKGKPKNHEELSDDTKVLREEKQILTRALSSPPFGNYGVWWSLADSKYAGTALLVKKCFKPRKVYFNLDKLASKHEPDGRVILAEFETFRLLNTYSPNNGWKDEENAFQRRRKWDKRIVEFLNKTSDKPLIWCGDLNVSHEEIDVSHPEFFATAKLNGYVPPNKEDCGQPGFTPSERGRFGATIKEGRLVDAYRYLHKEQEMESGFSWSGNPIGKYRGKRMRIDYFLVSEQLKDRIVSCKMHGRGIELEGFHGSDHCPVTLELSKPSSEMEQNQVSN", "assay": "EMSA; no Mg2+ listed; 100 and 300 nM protein, 50 nM DNA; EMSA: 10 mM Tris-HCl pH 8.0, 150 mM NaCl, 0.05% Triton X-100, 0.1 mg/mL BSA, 10% glycerol, 10 mM DTT; on ice 10 min; 8% native gel", "conditions": "protein: recombinant; tags: N-terminal MBP (HRV 3C site); HisTrap purified; label: 32P (5' end of strand 1); blunt"}},
  "data": [
    {"binder": "F35[5mC]/R35 (5mC 35-mer) (dsDNA, 5-methylcytosine at position 18 of strand 1) DNA 1: GTACTGTGTGATACTATCGAATTCAGTATGATCTG DNA 2: CAGATCATACTGAATTCGATAGTATCACACAGTAC", "values": [
      {"measurement": "binding result", "setting": "MBP-ARP", "result": "binds"},
      {"measurement": "binding result", "setting": "MBP-APE1L", "result": "binds"}
    ]}
  ]
}
